Measurements from patent US20230287088A1.
Changes are numbered by the printed parent chain. Where two headings read alike, the source gives them in different places.

Assays:
[1] = molecular target: T1, SARS-CoV-2 spike protein (wild-type) on VSV pseudovirus (SARS-CoV-2), P0DTC2
[2] = molecular target: T1, SARS-CoV-2 spike protein (wild-type) on …; remark: listed apart in the source
[3] = molecular target: T1, SARS-CoV-2 spike protein (wild-type) on …; remark: listed apart in the source
[4] = molecular target: T1, SARS-CoV-2 spike protein (wild-type) on …; remark: listed apart in the source
[5] = molecular target: T1, SARS-CoV-2 spike protein (wild-type) on …; remark: listed apart in the source
[6] = molecular target: T1, SARS-CoV-2 spike protein (wild-type) on …; remark: listed apart in the source
[7] = molecular target: T1, SARS-CoV-2 spike protein (wild-type) on …; experiment: cell-based or functional assay
[8] = molecular target: T1, SARS-CoV-2 spike protein (wild-type) on …; remark: listed apart in the source

B1: 465: LC of anti-S1 antibody with a C-terminal fusion of a scFv of P043.A.00017.E07 (bispecific antibody)
heavy: QMQLVQSGTEVKKPGESLKISCKGSGYGFITYWIGWVRQMPGKGLEWMGIIYPGDSETRYSPSFQGQVTISADKSINTAYLQWSSLKASDTAIYYCAGGSGISTPMDVWGQGTTVTVASTKGPSVFPLAPSSKSTSGGTAALGCLVKDYFPEPVTVSWNSGALTSGVHTFPAVLQSSGLYSLSSVVTVPSSSLGTQTYICNVNHKPSNTKVDKRVEPKSCDKTHTCPPCPAPEAAGGPSVFLFPPKPKDTLMISRTPEVTCVVVDVSHEDPEVKFNWYVDGVEVHNAKTKPREEQYNSTYRVVSVLTVLHQDWLNGKEYKCKVSNKALPAPIEKTISKAKGQPREPQVYTLPPSREEMTKNQVSLTCLVKGFYPSDIAVEWESNGQPENNYKTTPPVLDSDGSFFLYSKLTVDKSRWQQGNVFSCSVLHEALHSHYTQKSLSLSPGK
light: not shown
IC50 (pVNT, infected cells/16 fields) [1]: 0.21 ng/ml | IC90 (pVNT, infected cells/16 fields) [1]: 1.05 ng/ml

B2: 467: LC of anti-S1 antibody with a C-terminal fusion of a scFv of P043.A.00024.C11 (bispecific antibody)
heavy: B1 heavy
light: not shown
IC50 (pVNT, infected cells/16 fields) [2]: 0.4 µg/ml | IC90 (pVNT, infected cells/16 fields) [2]: 1.19 µg/ml | IC50 (pVNT, infected cells/16 fields) [1]: 0.46 ng/ml | IC90 (pVNT, infected cells/16 fields) [1]: 1.42 ng/ml

B3: P043.A.00092.C12 (antibody)
heavy chain: QEELKETGGGLVQPGGSLTLSCKASGFDFSSYYMSWVRQAPGKGLEWIGVIYASKGSTDYASWVNGRFTISSDNAQNTVDLQMNSLTAADTATYYCARSKRFYTYGYAGYAYAHYYYGMDLWGPGTLVTVSS
light chain: AIQMTQSPSSLAASVGDTVTITCKASEDIGYGLNWYQQKLGIAPKLLIYGADTLESGVPSRFSGSGSETDYTLTISSVQAEDAGIYYCQQGYSTPLTFGAGTKVEIK
IC50 (pVNT, GFP-positive infected cells) [3]: 0.31 µg/ml | IC90 (pVNT, GFP-positive infected cells) [3]: 3.79 µg/ml

B4: P043.A.00023.E05 (antibody)
heavy chain: QSLEESGGRLVTPGTPLTLTCTVSGFSLSSYAMSWVRQAPGKGLEWIGIISSSGSTYYASWAKGRFTISKTSTTVDLKITSPTTEDTATYFCARDASSRGYYYYYGMDPWGPGTLVTVSS
light chain: B3 light chain with D52N
IC50 (pVNT, GFP-positive infected cells) [3]: 3.75 µg/ml | IC90 (pVNT, GFP-positive infected cells) [3]: 16.6 µg/ml

B5: P043.A.00097.B02 (antibody)
heavy chain: QELVESGGGLVQAGESLKLSCKASGIDFSSYGISWVRQAPGKGLEWIAYIYPGFGITNYANSVKGRFTISSDNAQNTVFLQMTSLTASDTATYFCTRAYASSSGYYIHYFNLWGPGTLVTVSS
light chain: B3 light chain with D52N, G91A
IC50 (pVNT, GFP-positive infected cells) [3]: 7.84 µg/ml | IC90 (pVNT, GFP-positive infected cells) [3]: 24.2 µg/ml

B6: P043.A.00017.E04 (antibody)
heavy chain: QSVEESGGRLVTPGTPLTLTCTVSGFSLNNYAMNWVRQAPGKGLEWIGIISSSGNTYYANWAKGRFTISKTSTTVDLKITSPTTEDTATYFCARDSYPGYSPYYGMDPWGPGTLVTVSS
light chain: B3 light chain with G30A, A43T, D52N, D70H, S93N, L96P
IC50 (pVNT, GFP-positive infected cells) [3]: 1.19 µg/ml | IC90 (pVNT, GFP-positive infected cells) [3]: 5.35 µg/ml

B7: P043.A.00024.C11 (protein sample ID 451) (antibody, V domains shown)
VH: B4 heavy chain with L3V, S55T, R65P, D95G, A96G, S97A, S98G, R99Y, Y102A, Y103H
VL: B3 light chain with D52N
IC50, pVNT (luciferase RLU, VERO 76 cells), RiboMab in HEK 293T/17 supernatant [4]: 406 ng/mL | IC90, pVNT (luciferase RLU, VERO 76 cells), RiboMab in HEK 293T/17 supernatant [4]: 3810 ng/mL | IC50 (pVNT, GFP-positive infected cells) [3]: 4.74 µg/ml | IC90 (pVNT, GFP-positive infected cells) [3]: 20.6 µg/ml

B8: P043.A.00047.H08 (protein sample ID 447) (antibody, V domains shown)
VH: QSLEESGGDLVKPGASLTLTCTASGFSFSSDGMCWVRQAPGKGLEWIACIAAGSSGSTYYATWAQGRFTISKSSSTTVTLQMTSLTAADTATYFCAGEDYTGNNYYALWGPGTLVTVSS
VL: AIDMTQTPSPVSAVVGDTVTINCQASENIYSFLAWYQQKPGQPPKLLIYFASKLASGVPSRFKGSGSGTQFTLTISDVHSDDAAIYYCQQTGTYSDADNTFGGGTEVVVK
IC50, pVNT (luciferase RLU, VERO 76 cells), RiboMab in HEK 293T/17 supernatant [4]: 169 ng/mL | IC90, pVNT (luciferase RLU, VERO 76 cells), RiboMab in HEK 293T/17 supernatant [4]: 7240 ng/mL | IC50 (pVNT, GFP-positive infected cells) [3]: 3.9 µg/ml | IC90 (pVNT, GFP-positive infected cells) [3]: 18.2 µg/ml | IC50, pVNT (luciferase RLU), RiboMab in mouse serum, biological replicate 1 [5]: 740 ng/mL | IC50, pVNT (luciferase RLU), RiboMab in mouse serum, biological replicate 2 [5]: 424 ng/mL | IC90, pVNT (luciferase RLU), RiboMab in mouse serum, biological replicate 1 [5]: 6390 ng/mL | IC90, pVNT (luciferase RLU), RiboMab in mouse serum, biological replicate 2 [5]: 4530 ng/mL

B9: P043.A.00095.D06 (protein sample ID 470) (antibody, V domains shown)
VH: QEQLEESGGDLVKPEGSLTLTCTASGFSFSSNYWICWVRQAPGKGLEWIGCIYIGSGDTYYASWAKGRFTISKTSSTTVTLQMTSLTAADTATYFCARSYTPGSYYNMNLWGPGTLVTVSS
VL: DVVMTQTPSSVSAAVGGTVTINCQASQQISNELSWYQQKSGQPPKLLIYDASDLASGVPSRFKGSGSGTEFTLTISDLESADAATYYCQSTGGASSDGNAFGGGTEVVVK
IC50 (read off the curve), Mouse #1 [6]: 0.05 µg/mL | IC50 (read off the curve), Mouse #2 [6]: 0.05 µg/mL | IC50, pVNT (luciferase RLU, VERO 76 cells), RiboMab in HEK 293T/17 supernatant [4]: 189 ng/mL | IC50 (pVNT, GFP-positive infected cells) [3]: 0.28 µg/ml | IC90 (pVNT, GFP-positive infected cells) [3]: 2.28 µg/ml | IC90, pVNT (luciferase), RiboMab 470 in HEK 293T/17 supernatant [7]: 449 ng/mL | IC90, pVNT (luciferase), RiboMab 470 in mouse serum [7]: 297 ng/mL | IC50 (read off the curve) [8]: 0.2 µg/mL | IC50, pVNT (luciferase RLU), RiboMab in mouse serum, biological replicate 1 [5]: 53.6 ng/mL | IC50, pVNT (luciferase RLU), RiboMab in mouse serum, biological replicate 2 [5]: 51.8 ng/mL | IC90, pVNT (luciferase RLU), RiboMab in mouse serum, biological replicate 1 [5]: 310 ng/mL | IC90, pVNT (luciferase RLU), RiboMab in mouse serum, biological replicate 2 [5]: 284 ng/mL
